From paper PMC5773591, “Structural basis of trans-synaptic interactions between PTPδ and SALMs for inducing synapse formation” (Nature Communications, 2018)

B1: human SALM5 LRR–Ig-His6 (residues 18–378) (domain or fragment, UniProt Q96NI6 18-378, looked up)
chain: QICPKRCVCQILSPNLATLCAKKGLLFVPPNIDRRTVELRLADNFVTNIKRKDFANMTSLVDLTLSRNTISFITPHAFADLRNLRALHLNSNRLTKITNDMFSGLSNLHHLILNNNQLTLISSTAFDDVFALEELDLSYNNLETIPWDAVEKMVSLHTLSLDHNMIDNIPKGTFSHLHKMTRLDVTSNKLQKLPPDPLFQRAQVLATSGIISPSTFALSFGGNPLHCNCELLWLRRLSREDDLETCASPPLLTGRYFWSIPEEEFLCEPPLITRHTHEMRVLEGQRATLRCKARGDPEPAIHWISPEGKLISNATRSLVYDNGTLDILITTVKDTGAFTCIASNPAGEATQIVDLHIIKLP
notes: human SALM5 (synaptic adhesion-like molecule 5, Lrfn family), LRR–Ig, residues 18–378; Homodimer by SEC-MALS; The synaptogenic assay used another construct (entire ECD fused to Fc); also called SALM5 WT; apo-SALM5; source: Expi293F, transiently expressed, secreted, purified (Ni-NTA, Superdex200 SEC); not shown: His6, C-terminal, kept

Columns and labels:
[1] = target: human SALM5 LRR–Ig-His6 (residues 18–378) (human) (UniProt Q96NI6); experiment: SPR; Biacore T200, 25 °C, 10 mM Hepes-Na (pH 7.5), 200 mM NaCl, 0.05% Tween20; SALM5 proteins immobilised on a CM5 chip by amino coupling; PTPδ proteins injected as analytes (0.1–260 μM)
[2] = target: human SALM5 LRR–Ig-His6 I321A (human) (UniProt Q96NI6); experiment: as above
[3] = target: human SALM5 LRR–Ig-His6 I358A (human) (UniProt Q96NI6); experiment: as above
[4] = target: human SALM5 LRR–Ig-His6 L249A (human) (UniProt Q96NI6); experiment: as above
[5] = target: human SALM5 LRR–Ig-His6 L288A (human) (UniProt Q96NI6); experiment: as above
[6] = target: human SALM5 LRR–Ig-His6 Q134N (human) (UniProt Q96NI6); experiment: as above
[7] = target: human SALM5 LRR–Ig-His6 R253A (human) (UniProt Q96NI6); experiment: as above
[8] = target: IL1RAPL1 (Mus musculus) (UniProt P59823); settings: cited from earlier work
Sequence of IL1RAPL1 (Mus musculus) (P59823 25-357): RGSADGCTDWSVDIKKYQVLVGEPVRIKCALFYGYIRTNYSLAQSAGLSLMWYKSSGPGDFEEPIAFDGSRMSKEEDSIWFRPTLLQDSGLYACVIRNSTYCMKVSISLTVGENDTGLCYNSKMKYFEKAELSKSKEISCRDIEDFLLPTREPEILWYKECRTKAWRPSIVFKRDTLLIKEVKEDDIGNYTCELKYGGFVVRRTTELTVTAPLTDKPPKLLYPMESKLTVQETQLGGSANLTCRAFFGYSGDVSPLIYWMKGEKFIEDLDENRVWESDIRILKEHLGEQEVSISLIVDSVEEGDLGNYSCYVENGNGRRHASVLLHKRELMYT

[9] = target: the molecule itself; experiment: SEC-MALS; SALM LRR–Ig proteins at 0.5 g/L on ENrich SEC 650 in 20 mM Tris-HCl (pH 7.4), 250 mM NaCl; dimer of monomers
[10] = target: mouse PTPδ Ig1–Fn1 (A9B–) (mouse, UniProt Q64487 28-418, B– (meB insert 234ELRE237 absent)); experiment: SPR; Biacore T200, 25 °C, 10 mM Hepes-Na (pH 7.5), 200 mM NaCl, 0.05% Tween20; SALM5 proteins immobilised on a CM5 chip by amino coupling; PTPδ proteins injected as analytes (0.1–260 μM); settings: both partners purified
[11] = target: B1; experiment: as above; settings: both partners purified

mouse PTPδ Ig1–Fn1 (A9B+)-His6 M312A (domain or fragment)
Kd [1]: 37.3 µM

mouse PTPδ Ig1–Fn1 (A9B+)-His6 (domain or fragment)
Kd [1]: 14.4 µM
Kd [2]: 21.9 µM
Kd [3]: 31.4 µM
Kd [4]: 169 µM
Kd [5]: 129 µM
Kd [6]: 9 µM
Kd [7]: 95.2 µM

mouse PTPδ Ig1–Fn1 (A9B+)-His6 Y231A (domain or fragment)
Kd [1]: 70.9 µM

mouse PTPδ Ig1–Fn1 (A–B+) (from UniProt Q64487 28-418) (domain or fragment)
Kd [1]: 13.5 µM

mouse PTPδ Ig1–Fn1 (A9B+)-His6 M137A (domain or fragment)
Kd [1]: 39.9 µM

mouse PTPδ Ig1–Fn1 (A9B+)-His6 L153A (domain or fragment)
Kd [1]: 25 µM

mouse PTPδ Ig1–Fn1 (A9B+)-His6 V143A (domain or fragment)
Kd [1]: 150 µM

PTPδ (from UniProt Q64487)
Kd [8]: 0.15 µM

mouse PTPδ Ig1–Fn1 (A9B+)-His6 Y273A (domain or fragment)
Kd [1]: 77.5 µM

B1
stoichiometry N [9]: 2
Kd [10]: 106 ± 17 µM

B2: mouse SALM2 LRR–Ig-His6 (residues 32–390) (domain or fragment, UniProt Q2WF71 32-390, looked up)
chain: QPCPGRCICQNVAPTLTMLCAKTGLLFVPPAIDRRVVELRLTDNFIAAVRRRDFANMTSLVHLTLSRNTIGQVAAGAFADLRALRALHLDSNRLAEVRGDQLRGLGNLRHLILGNNQIRKVESAAFDAFLSTVEDLDLSYNNLEALPWEAVGQMVNLNTLTLDHNLIDHIAEGTFVQLHKLVRLDMTSNRLHKLPPDGLFLRSQGGGPKPPTPLTVSFGGNPLHCNCELLWLRRLTREDDLETCATPEHLTDRYFWSIPEEEFLCEPPLITRQAGGRALVVEGQAVSLRCRAVGDPEPVVHWVAPDGRLLGNSSRTRVRGDGTLDVTITTLRDSGTFTCIASNAAGEATAPVEVCVVPL
notes: mouse SALM2 (synaptic adhesion-like molecule 2, Lrfn family), LRR–Ig, residues 32–390; Homodimer by SEC-MALS; source: Expi293F, transiently expressed, secreted, purified (Ni-NTA, Superdex200 SEC); not shown: His6, C-terminal, kept
stoichiometry N [9]: 2

B3: mouse PTPδ Ig1–Fn1 (A9B+)-His6 Q209A (domain or fragment)
chain: ETPPRFTRTPVDQTGVSGGVASFICQATGDPRPKIVWNKKGKKVSNQRFEVIEFDDGSGSVLRIQPLRTPRDEAIYECVASNNVGEISVSTRLTVLREDQIPRGFPTIDMGPQLKVVERTRTATMLCAASGNPDPEITWFKDFLPVDTSNNNGRIKQLRSESIGGTPIRGALQIEQSEESDAGKYECVATNSAGTRYSAPANLYVRELREVRRVPPRFSIPPTNHEIMPGGSVNITCVAVGSPMPYVKWMLGAEDLTPEDDMPIGRNVLELNDVRQSANYTCVAMSTLGVIEAIAQITVKALPKPPGTPVVTESTATSITLTWDSGNPEPVSYYIIQHKPKNSEEPYKEIDGIATTRYSVAGLSPYSDYEFRVVAVNNIGRGPASEPVLTQ
Kd [11]: 21.9 ± 0.23 µM

B4: mouse PTPδ Ig1–Fn1 (A9B+)-His6 R233A (domain or fragment)
chain: ETPPRFTRTPVDQTGVSGGVASFICQATGDPRPKIVWNKKGKKVSNQRFEVIEFDDGSGSVLRIQPLRTPRDEAIYECVASNNVGEISVSTRLTVLREDQIPRGFPTIDMGPQLKVVERTRTATMLCAASGNPDPEITWFKDFLPVDTSNNNGRIKQLRSESIGGTPIRGALQIEQSEESDQGKYECVATNSAGTRYSAPANLYVAELREVRRVPPRFSIPPTNHEIMPGGSVNITCVAVGSPMPYVKWMLGAEDLTPEDDMPIGRNVLELNDVRQSANYTCVAMSTLGVIEAIAQITVKALPKPPGTPVVTESTATSITLTWDSGNPEPVSYYIIQHKPKNSEEPYKEIDGIATTRYSVAGLSPYSDYEFRVVAVNNIGRGPASEPVLTQ
Kd [11]: 24.8 ± 1.2 µM
